Source: article PMC10501992, “How Pol α-primase is targeted to replisomes to prime eukaryotic DNA replication” (Molecular Cell, 2023)
Each block holds one binder with its values, some of them ahead of it.

Assays:
Assay in all cases: cryo-EM structure; human replisome: 150 nM CMG on fork DNA (60 nt or 15 nt 5′ flap) with 1.5-fold molar excess of AND-1, TIMELESS-TIPIN, CLASPIN and Pol α-primase; 25 mM HEPES-NaOH pH 7.6, 150 mM NaOAc, 0.5 mM TCEP, 500 μM AMP-PNP, 10 mM Mg(OAc)2, on ice; 10-30% glycerol gradient with glutaraldehyde and BS3 cross-linkers
Conditions in all cases: both partners purified
[1] = biological target: T1, human CMG (CDC45-MCM-GINS) replicative helicase (human, UniProt O75419 1-566; P49736 1-904; P25205 1-808; P33991 1-863; P33992 1-734; Q14566 …)
T1 construct: CDC45, human; MCM2, human; MCM3, human; MCM4, human; MCM5, human; MCM6, human; MCM7, human; PSF1, subunit of GINS, human; PSF2, subunit of GINS, human; PSF3, subunit of GINS, human; SLD5, subunit of GINS, human; the subunits are named in the methods for the MCM3-4A form, which was made as the wild type; copies: + + + + + + + + + +

[2] = biological target: T2, POLA1 (human Pol α catalytic subunit) (human, UniProt P09884 1-1462)
T2 construct: POLA1, human; modelled residues 1279-1445 and 1448-1458 (CTD); stood in the assay as a subunit of m18; also called POLA1CTD; POLA1_(exo-cat)
T2 sequence: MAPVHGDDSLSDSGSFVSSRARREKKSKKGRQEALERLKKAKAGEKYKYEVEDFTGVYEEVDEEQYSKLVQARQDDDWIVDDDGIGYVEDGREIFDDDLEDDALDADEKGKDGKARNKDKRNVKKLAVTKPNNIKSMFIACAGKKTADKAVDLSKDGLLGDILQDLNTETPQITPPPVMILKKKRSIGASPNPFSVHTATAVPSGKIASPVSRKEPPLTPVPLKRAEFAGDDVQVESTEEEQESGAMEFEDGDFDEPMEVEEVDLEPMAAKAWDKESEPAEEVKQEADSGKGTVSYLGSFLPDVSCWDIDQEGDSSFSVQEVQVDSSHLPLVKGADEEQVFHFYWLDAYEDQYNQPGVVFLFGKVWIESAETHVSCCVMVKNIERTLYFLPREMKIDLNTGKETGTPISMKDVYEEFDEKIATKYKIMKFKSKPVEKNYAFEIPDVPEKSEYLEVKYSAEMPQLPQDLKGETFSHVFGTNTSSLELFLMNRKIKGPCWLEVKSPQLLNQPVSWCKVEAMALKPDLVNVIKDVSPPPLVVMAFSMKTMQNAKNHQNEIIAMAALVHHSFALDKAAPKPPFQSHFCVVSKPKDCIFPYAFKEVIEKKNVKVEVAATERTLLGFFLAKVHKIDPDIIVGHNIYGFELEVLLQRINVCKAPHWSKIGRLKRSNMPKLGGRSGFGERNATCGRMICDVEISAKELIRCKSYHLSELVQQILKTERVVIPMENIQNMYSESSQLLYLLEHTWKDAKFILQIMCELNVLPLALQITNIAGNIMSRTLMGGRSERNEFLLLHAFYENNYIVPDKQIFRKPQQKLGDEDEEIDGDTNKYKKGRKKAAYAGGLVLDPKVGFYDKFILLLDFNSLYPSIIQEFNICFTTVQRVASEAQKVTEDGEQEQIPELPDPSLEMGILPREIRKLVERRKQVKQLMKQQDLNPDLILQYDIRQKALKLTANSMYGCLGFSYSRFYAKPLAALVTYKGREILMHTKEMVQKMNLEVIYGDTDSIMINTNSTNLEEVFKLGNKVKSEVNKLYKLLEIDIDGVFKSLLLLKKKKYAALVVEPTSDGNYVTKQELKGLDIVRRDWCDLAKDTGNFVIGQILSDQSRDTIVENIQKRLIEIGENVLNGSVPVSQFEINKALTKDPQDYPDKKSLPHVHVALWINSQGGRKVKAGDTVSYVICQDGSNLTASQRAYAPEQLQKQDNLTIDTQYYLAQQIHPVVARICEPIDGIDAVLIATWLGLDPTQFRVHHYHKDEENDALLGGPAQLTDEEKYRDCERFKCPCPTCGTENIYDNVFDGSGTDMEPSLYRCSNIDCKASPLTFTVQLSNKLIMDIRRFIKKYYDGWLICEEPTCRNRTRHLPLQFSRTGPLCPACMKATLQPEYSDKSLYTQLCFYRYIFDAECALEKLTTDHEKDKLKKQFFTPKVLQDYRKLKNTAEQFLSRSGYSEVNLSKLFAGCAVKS

[3] = biological target: T3, PRIM2 (human primase accessory subunit) (human, UniProt P49643 1-509)
T3 construct: PRIM2, human; modelled residues 1-5 (N terminus) and 17-252 (NTD); stood in the assay as a subunit of m18; also called PRIM2NTD; PRIM2_(Nterm)
T3 sequence: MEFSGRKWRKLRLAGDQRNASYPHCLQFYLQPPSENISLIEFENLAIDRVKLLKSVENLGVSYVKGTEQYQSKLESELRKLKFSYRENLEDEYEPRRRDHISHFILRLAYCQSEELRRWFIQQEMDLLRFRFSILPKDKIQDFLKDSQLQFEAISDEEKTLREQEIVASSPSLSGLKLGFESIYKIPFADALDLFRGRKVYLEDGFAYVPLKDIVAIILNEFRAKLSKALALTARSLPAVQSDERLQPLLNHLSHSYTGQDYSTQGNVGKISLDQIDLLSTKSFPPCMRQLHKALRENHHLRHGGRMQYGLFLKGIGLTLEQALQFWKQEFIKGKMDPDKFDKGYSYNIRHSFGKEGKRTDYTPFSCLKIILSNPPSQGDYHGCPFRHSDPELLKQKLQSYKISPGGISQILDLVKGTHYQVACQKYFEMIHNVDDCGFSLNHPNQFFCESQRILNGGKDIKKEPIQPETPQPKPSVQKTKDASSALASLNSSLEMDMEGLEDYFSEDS

- binding result [1]: binds
B1: TIMELESS-TIPIN (human) (complex)
chain 1: MDLHMMNCELLATCSALGYLEGDTYHKEPDCLESVKDLIRYLRHEDETRDVRQQLGAAQILQSDLLPILTQHHQDKPLFDAVIRLMVNLTQPALLCFGNLPKEPSFRHHFLQVLTYLQAYKEAFASEKAFGVLSETLYELLQLGWEERQEEDNLLIERILLLVRNILHVPADLDQEKKIDDDASAHDQLLWAIHLSGLDDLLLFLASSSAEEQWSLHVLEIVSLMFRDQNPEQLAGVGQGRLAQERSADFAELEVLRQREMAEKKTRALQRGNRHSRFGGSYIVQGLKSIGERDLIFHKGLHNLRNYSSDLGKQPKKVPKRRQAARELSIQRRSALNVRLFLRDFCSEFLENCYNRLMGSVKDHLLREKAQQHDETYYMWALAFFMAFNRAASFRPGLVSETLSVRTFHFIEQNLTNYYEMMLTDRKEAASWARRMHLALKAYQELLATVNEMDISPDEAVRESSRIIKNNIFYVMEYRELFLALFRKFDERCQPRSFLRDLVETTHLFLKMLERFCRSRGNLVVQNKQKKRRKKKKKVLDQAIVSGNVPSSPEEVEAVWPALAEQLQCCAQNSELSMDSVVPFDAASEVPVEEQRAEAMVRIQDCLLAGQAPQALTLLRSAREVWPEGDVFGSQDISPEEEIQLLKQILSAPLPRQQGPEERGAEEEEEEEEEEEEELQVVQVSEKEFNFLDYLKRFACSTVVRAYVLLLRSYQQNSAHTNHCIVKMLHRLAHDLKMEALLFQLSVFCLFNRLLSDPAAGAYKELVTFAKYILGKFFALAAVNQKAFVELLFWKNTAVVREMTEGYGSLDDRSSSRRAPTWSPEEEAHLRELYLANKDVEGQDVVEAILAHLNTVPRTRKQIIHHLVQMGLADSVKDFQRKGTHIVLWTGDQELELQRLFEEFRDSDDVLGHIMKNITAKRSRARIVDKLLALGLVAERRELYKKRQKKLASSILPNGAESLKDFCQEDLEEEENLPEEDSEEEEEGGSEAEQVQGSLVLSNENLGQSLHQEGFSIPLLWLQNCLIRAADDREEDGCSQAVPLVPLTEENEEAMENEQFQQLLRKLGVRPPASGQETFWRIPAKLSPTQLRRAAASLSQPEEEQKLQPELQPKVPGEQGSDEEHCKEHRAQALRALLLAHKKKAGLASPEEEDAVGKEPLKAAPKKRQLLDSDEEQEEDEGRNRAPELGAPGIQKKKRYQIEDDEDD
chain 2: MLEPQENGVIDLPDYEHVEDETFPPFPPPASPERQDGEGTEPDEESGNGAPVRVPPKRTVKRNIPKLDAQRLISERGLPALRHVFDKAKFKGKGHEAEDLKMLIRHMEHWAHRLFPKLQFEDFIDRVEYLGSKKEVQTCLKRIRLDLPILHEDFVSNNDEVAENNEHDVTSTELDPFLTNLSESEMFASELSRSLTEEQQQRIERNKQLALERRQAKLLSNSQTLGNDMLMNTPRAHTVEEVNTDEDQKEESNGLNEDILDNPCNDAIANTLNEEETLLDQSFKNVQQQLDATSRNITEAR
notes: TIPIN, human; source: purified (Strep-Tactin XT resin, TEV protease, HiTrap Q HP, Superdex 200)

- binding result [2]: binds
B2: POLA2 (human Pol α accessory subunit) (natural protein)
chain: MSASAQQLAEELQIFGLDCEEALIEKLVELCVQYGQNEEGMVGELIAFCTSTHKVGLTSEILNSFEHEFLSKRLSKARHSTCKDSGHAGARDIVSIQELIEVEEEEEILLNSYTTPSKGSQKRAISTPETPLTKRSVSTRSPHQLLSPSSFSPSATPSQKYNSRSNRGEVVTSFGLAQGVSWSGRGGAGNISLKVLGCPEALTGSYKSMFQKLPDIREVLTCKIEELGSELKEHYKIEAFTPLLAPAQEPVTLLGQIGCDSNGKLNNKSVILEGDREHSSGAQIPVDLSELKEYSLFPGQVVIMEGINTTGRKLVATKLYEGVPLPFYQPTEEDADFEQSMVLVACGPYTTSDSITYDPLLDLIAVINHDRPDVCILFGPFLDAKHEQVENCLLTSPFEDIFKQCLRTIIEGTRSSGSHLVFVPSLRDVHHEPVYPQPPFSYSDLSREDKKQVQFVSEPCSLSINGVIFGLTSTDLLFHLGAEEISSSSGTSDRFSRILKHILTQRSYYPLYPPQEDMAIDYESFYVYAQLPVTPDVLIIPSELRYFVKDVLGCVCVNPGRLTKGQVGGTFARLYLRRPAADGAERQSPCIAVQVVRI
notes: POLA2, human; stood in the assay as a subunit of m18

- binding result [3]: binds
B3: PRIM1 (human primase catalytic subunit) (natural protein)
chain: METFDPTELPELLKLYYRRLFPYSQYYRWLNYGGVIKNYFQHREFSFTLKDDIYIRYQSFNNQSDLEKEMQKMNPYKIDIGAVYSHRPNQHNTVKLGAFQAQEKELVFDIDMTDYDDVRRCCSSADICPKCWTLMTMAIRIIDRALKEDFGFKHRLWVYSGRRGVHCWVCDESVRKLSSAVRSGIVEYLSLVKGGQDVKKKVHLSEKIHPFIRKSINIIKKYFEEYALVNQDILENKESWDKILALVPETIHDELQQSFQKSHNSLQRWEHLKKVASRYQNNIKNDKYGPWLEWEIMLQYCFPRLDINVSKGINHLLKSPFSVHPKTGRISVPIDLQKVDQFDPFTVPTISFICRELDAISTNEEEKEENEAESDVKHRTRDYKKTSLAPYVKVFEHFLENLDKSRKGELLKKSDLQKDF
notes: PRIM1, human; modelled residues 9-349 and 386-408; stood in the assay as a subunit of m18
